Broadly, the Tm is the temperature at the midpoint of the melting transition.

The source of these data is FireProtDB (doi:10.1038/75151).

For the data set the following is noted: Bacillus caldolyticus, pH 7, Thermal, CD, Sodium cacodylate-HCl 0.1 M, reversible: yes, whole UniProt chain shown.

B1: Cold shock protein CspB wild type, P41016 (protein)
chain: MQRGKVKWFNNEKGYGFIEVEGGSDVFVHFTAIQGEGFKTLEEGQEVSFEIVQGNRGPQAANVVKL
On to B1, for which the Tm turned out to be 76.9 °C and the “unfolding enthalpy (van 't Hoff)” value stood at 58.6 kcal/mol. Under “70 °C, NaCl 2 M”, the unfolding free energy was 2.2 kcal/mol.
